{"source": "patent US10183971B2", "about": "“SAA-domain-specific antibodies and peptide antagonists and use thereof to treat inflammatory diseases” (The Feinstein Institute For Medical Research, priority 2013, dated 2019)", "molecules": {"B1": {"name": "KC: inflammatory mediator, sepsis surrogate marker (protein, UniProt P12850 25-96, looked up)", "Growth-regulated alpha protein": "APIANELRCQCLQTMAGIHLKNIQSLKVLPSGPHCTQTEVIATLKNGREACLDPEAPLVQKIVQKMLKGVPK"}, "B2": {"name": "human SAA: human serum amyloid A, recombinant protein (Cat. No. 300-13, PeproTech) (protein)", "chain": "RSFFSFLGEAFDGARDMWRAYSDMREANYIGSDKYFHARGNYDAAKRGPGGAWAAEVITDARENIQRFFGHGAEDSLADQAANEWGRSGKDPNHFRPAGLPEKY"}, "B3": {"name": "human SAA1: human SAA1 (Cat. No. 300-53, PeproTech) (protein)", "chain": "B2 chain"}}, "key": {"[1]": {"test_system": "HMGB1 release", "test": "HMGB1 release in vitro by inflammatory mediators (data not shown)", "assay_type": "cell-based"}, "[2]": {"test_system": "murine macrophages", "test": "HMGB1 release in murine macrophage cultures (Western blots)", "assay_type": "cell-based", "details": "1-10 μg/ml, 16 h", "protocol": "(§1) FIG. 4A-4C. […] A, Amino acid sequence of human and murine SAAs (SEQ ID NOS:19-23, top to bottom). B, Western blots of human SAA and SAA1. Note that the anti-HMGB1 IgGs paradoxically cross-reacted with huSAA, but not huSAA1. […] Murine macrophages and human monocytes were stimulated with huSAA or huSAA1 for 16 h, and extracellular HMGB 1 levels were determined by Western blots.\n(§2) Overall, there is a >95-98% amino acid sequence homology between members of the human or murine SAA families, and a >75% identity across human and murine families (FIG. 4A), making it seemingly difficult to distinguish between different SAA members by immunoassays. Indeed, the polyclonal antibodies raised against human SAA cross-reacted with both human SAA and SAA1 on Western blots (FIG. 4B, bottom panel). Intriguingly, our rabbit anti-HMGB1 IgGs “specifically” recognized human SAA, but not SAA1, on Western blots (FIG. 4B), implicating a possibility of selectively immunodetecting human SAA with appropriate antibodies."}, "[3]": {"test_system": "human monocytes", "test": "HMGB1 release in human monocyte cultures (Western blots)", "assay_type": "cell-based", "details": "1-10 μg/ml, 16 h", "protocol": "as §1, §2"}, "[4]": {"test_system": "Balb/C mice", "assay_type": "in vivo", "details": "LPS 5 mg/kg i.p. in combination with SAA 0.8 mg/kg"}}, "note": "Read-outs that look alike come from different tables or passages of the source.", "data": [{"molecule": "B1", "values": [{"measurement": "induction of HMGB1 release in vitro", "setting": "[1]", "result": "unable to induce HMGB1 release"}]}, {"molecule": "B2", "values": [{"measurement": "induction of HMGB1 release", "setting": "[2]", "result": "effectively induced HMGB1 release"}, {"measurement": "induction of HMGB1 release", "setting": "[2]; listed as HuSAA", "result": "induced HMGB1 release"}, {"measurement": "induction of HMGB1 release", "setting": "[3]", "result": "effectively induced HMGB1 release"}, {"measurement": "induction of HMGB1 release", "setting": "[3]; listed as HuSAA", "result": "induced HMGB1 release"}, {"measurement": "effect on LPS-induced animal lethality", "setting": "[4]; listed as Recombinant SAA protein", "result": "dramatically exacerbated"}, {"measurement": "effect on LPS-induced animal lethality", "setting": "[4]; listed as SAA", "result": "exacerbated LPS-induced animal lethality"}]}, {"molecule": "B3", "values": [{"measurement": "induction of HMGB1 release", "setting": "[2]", "result": "barely triggered HMGB1 release"}, {"measurement": "induction of HMGB1 release", "setting": "[3]", "result": "barely triggered HMGB1 release"}]}]}
